Test results: US20250304643A1 (BAINAN BIOTECH, published 2025)
[ ]: non-standard residue; d: D form. The star is where a group is joined. Palmitoyl = CCCCCCCCCCCCCCCC(=O)*; Aib = CC(C)(N)C(=O)O

Target: macaque GLP-2R (macaque)
Assay: cell-based or functional assay

B1: Compound no. 5 (peptide)
peptide: Palmitoyl-H[Aib]DGTFISDYST[Aib]LDNLAARDFINWLIQTKITK-OH
SMILES: CCCCCCCCCCCCCCCC(=O)N[C@@H](Cc1c[nH]cn1)C(=O)NC(C)(C)C(=O)N[C@@H](CC(=O)O)C(=O)NCC(=O)N[C@H](C(=O)N[C@@H](Cc1ccccc1)C(=O)N[C@H](C(=O)N[C@@H](CO)C(=O)N[C@@H](CC(=O)O)C(=O)N[C@@H](Cc1ccc(O)cc1)C(=O)N[C@@H](CO)C(=O)N[C@H](C(=O)NC(C)(C)C(=O)N[C@@H](CC(C)C)C(=O)N[C@@H](CC(=O)O)C(=O)N[C@@H](CC(N)=O)C(=O)N[C@@H](CC(C)C)C(=O)N[C@@H](C)C(=O)N[C@@H](C)C(=O)N[C@@H](CCCNC(=N)N)C(=O)N[C@@H](CC(=O)O)C(=O)N[C@@H](Cc1ccccc1)C(=O)N[C@H](C(=O)N[C@@H](CC(N)=O)C(=O)N[C@@H](Cc1c[nH]c2ccccc12)C(=O)N[C@@H](CC(C)C)C(=O)N[C@H](C(=O)N[C@@H](CCC(N)=O)C(=O)N[C@H](C(=O)N[C@@H](CCCCN)C(=O)N[C@H](C(=O)N[C@H](C(=O)N[C@@H](CCCCN)C(=O)O)[C@@H](C)O)[C@@H](C)CC)[C@@H](C)O)[C@@H](C)CC)[C@@H](C)CC)[C@@H](C)O)[C@@H](C)CC)[C@@H](C)O
- Efficacy (%): 120%
